Laboratory results: patent US20090018099

Key:
[1] = molecular target: recombinant GST-Flag-CERT(1-138) wild type fusion protein, produced in E. coli [GST: P08515]
[2] = molecular target: recombinant GST-Flag-CERT-S132A(1-138) fusion protein, produced in E. coli [GST: P08515]

B1: purified PKD1 (protein)
chain: MSAPPVLRPPSPLLPVAAAAAAAAAALVPGSGPGPAPFLAPVAAPVGGISFHLQIGLSREPVLLLQDSSGDYSLAHVREMACSIVDQKFPECGFYGMYDKILLFRHDPTSENILQLVKAASDIQEGDLIEVVLSASATFEDFQIRPHALFVHSYRAPAFCDHCGEMLWGLVRQGLKCEGCGLNYHKRCAFKIPNNCSGVRRRRLSNVSLTGVSTIRTSSAELSTSAPDEPLLQKSPSESFIGREKRSNSQSYIGRPIHLDKILMSKVKVPHTFVIHSYTRPTVCQYCKKLLKGLFRQGLQCKDCRFNCHKRCAPKVPNNCLGEVTINGDLLSPGAESDVVMEEGSDDNDSERNSGLMDDMEEAMVQDAEMAMAECQNDSGEMQDPDPDHEDANRTISPSTSNNIPLMRVVQSVKHTKRKSSTVMKEGWMVHYTSKDTLRKRHYWRLDSKCITLFQNDTGSRYYKEIPLSEILSLEPVKTSALIPNGANPHCFEITTANVVYYVGENVVNPSSPSPNNSVLTSGVGADVARMWEIAIQHALMPVIPKGSSVGTGTNLHRDISVSISVSNCQIQENVDISTVYQIFPDEVLGSGQFGIVYGGKHRKTGRDVAIKIIDKLRFPTKQESQLRNEVAILQNLHHPGVVNLECMFETPERVFVVMEKLHGDMLEMILSSEKGRLPEHITKFLITQILVALRHLHFKNIVHCDLKPENVLLASADPFPQVKLCDFGFARIIGEKSFRRSVVGTPAYLAPEVLRNKGYNRSLDMWSVGVIIYVSLSGTFPFNEDEDIHDQIQNAAFMYPPNPWKEISHEAIDLINNLLQVKMRKRYSVDKTLSHPWLQDYQTWLDLRELECKIGERYITHESDDLRWEKYAGEQGLQYPTHLINPSASHSDTPETEETEMKALGERVSIL
[1]
  incorporation of radioactivity (in vitro kinase assay with [gamma-32P]-ATP, PhosphoImager): incorporation of radioactivity is detected
[2]
  incorporation of radioactivity (in vitro kinase assay with [gamma-32P]-ATP, PhosphoImager): This is significantly impaired in the case of the CERT-S132A fusion protein
